{
  "source": "paper PMC7442819",
  "about": "“Taf14 recognizes a common motif in transcriptional machineries and facilitates their clustering by phase separation” (Nature Communications, 2020)",
  "parents": {"B1": {"name": "Sth1EBM (Sth1_(1183–1240)) [Saccharomyces cerevisiae] / Taf14ET (Taf14_(174–244)) [Saccharomyces cerevisiae] (parent complex)", "chain 1": "EVKSSSVEIINGSESKKKKPKLTVKIKLNKTTVLENNDGKRAEEKPESKSPAKKTAAK", "chain 2": "KGSVDLEKLAFGLTKLNEDDLVGVVQMVTDNKTPEMNVTNNVEEGEFIIDLYSLPEGLLKSLWDYVKKNTE"}, "B2": {"name": "Ino80_(368–390) [Saccharomyces cerevisiae] / Taf14ET (Taf14_(174–244)) [Saccharomyces cerevisiae] (parent complex)", "chain 1": "DSKLNIKITLKQYHVKRLKKLIN", "chain 2": "B1 chain 2"}, "B3": {"name": "Snf5_(771–800) [Saccharomyces cerevisiae] / Taf14ET (Taf14_(174–244)) [Saccharomyces cerevisiae] (parent complex)", "chain 1": "SPPCYIIDHIPGHSLLLSIKLPGKVNTKEE", "chain 2": "B1 chain 2"}, "B4": {"name": "Sth1^WT-TAP [Saccharomyces cerevisiae] / Taf14-HA [Saccharomyces cerevisiae] (parent complex)", "chain 1": "MLQEQSELMSTVMNNTPTTVAALAAVAAASETNGKLGSEEQPEITIPKPRSSAQLEQLLYRYRAIQNHPKENKLEIKAIEDTFRNISRDQDIYETKLDTLRKSIDKGFQYDEDLLNKHLVALQLLEKDTDVPDYFLDLPDTKNDNTTAIEVDYSEKKPIKISADFNAKAKSLGLESKFSNATKTALGDPDTEIRISARISNRINELERLPANLGTYSLDDCLEFITKDDLSSRMDTFKIKALVELKSLKLLTKQKSIRQKLINNVASQAHHNIPYLRDSPFTAAAQRSVQIRSKVIVPQTVRLAEELERQQLLEKRKKERNLHLQKINSIIDFIKERQSEQWSRQERCFQFGRLGASLHNQMEKDEQKRIERTAKQRLAALKSNDEEAYLKLLDQTKDTRITQLLRQTNSFLDSLSEAVRAQQNEAKILHGEEVQPITDEEREKTDYYEVAHRIKEKIDKQPSILVGGTLKEYQLRGLEWMVSLYNNHLNGILADEMGLGKTIQSISLITYLYEVKKDIGPFLVIVPLSTITNWTLEFEKWAPSLNTIIYKGTPNQRHSLQHQIRVGNFDVLLTTYEYIIKDKSLLSKHDWAHMIIDEGHRMKNAQSKLSFTISHYYRTRNRLILTGTPLQNNLPELWALLNFVLPKIFNSAKTFEDWFNTPFANTGTQEKLELTEEETLLIIRRLHKVLRPFLLRRLKKEVEKDLPDKVEKVIKCKLSGLQQQLYQQMLKHNALFVGAGTEGATKGGIKGLNNKIMQLRKICNHPFVFDEVEGVVNPSRGNSDLLFRVAGKFELLDRVLPKFKASGHRVLMFFQMTQVMDIMEDFLRMKDLKYMRLDGSTKTEERTEMLNAFNAPDSDYFCFLLSTRAGGLGLNLQTADTVIIFDTDWNPHQDLQAQDRAHRIGQKNEVRILRLITTDSVEEVILERAMQKLDIDGKVIQAGKFDNKSTAEEQEAFLRRLIESETNRDDDDKAELDDDELNDTLARSADEKILFDKIDKERMNQERADAKAQGLRVPPPRLIQLDELPKVFREDIEEHFKKEDSEPLGRIRQKKRVYYDDGLTEEQFLEAVEDDNMSLEDAIKKRREARERRRLRQNGTKENEIETLENTPEASETSLIENNSFTAAVDEETNADKETTASRSKRRSSRKKRTISIVTAEDKENTQEESTSQENGGAKVEEEVKSSSVEIINGSESKKKKPKLTVKIKLNKTTVLENNDGKRAEEKPESKSPAKKTAAKKTKTKSKSLGIFPTVEKLVEEMREQLDEVDSHPRTSIFEKLPSKRDYPDYFKVIEKPMAIDIILKNCKNGTYKTLEEVRQALQTMFENARFYNEEGSWVYVDADKLNEFTDEWFKEHSS", "chain 2": "MVATVKRTIRIKTQQHILPEVPPVENFPVRQWSIEIVLLDDEGKEIPATIFDKVIYHLHPTFANPNRTFTDPPFRIEEQGWGGFPLDISVFLLEKAGERKIPHDLNFLQESYEVEHVIQIPLNKPLLTEELAKSGSTEETTANTGTIGKRRTTTNTTAEPKAKRAKTGSASTVKGSVDLEKLAFGLTKLNEDDLVGVVQMVTDNKTPEMNVTNNVEEGEFIIDLYSLPEGLLKSLWDYVKKNTE"}},
  "data": [
    {"variants_of": "B1", "test": "ITC; parent: 50 nM", "units": {"Kd": "µM"}, "values": [
      {"variant": "chain 1 V24A", "Kd": 2.04},
      {"variant": "chain 1 L22A", "Kd": 2.06},
      {"variant": "chain 1 K25E", "Kd": 7.69},
      {"variant": "chain 1 I26A", "Kd": 13.4},
      {"variant": "chain 1 K27E", "Kd": 3.94},
      {"variant": "chain 1 L28A", "Kd": 1.14}
    ]},
    {"variants_of": "B1", "test": "ITC; parent: 50 nM", "remark": "another data set of the same source", "units": {"Kd": "µM"}, "values": [
      {"variant": "chain 2 F47A", "Kd": 0.68},
      {"variant": "chain 2 F47R", "Kd": 3.5}
    ]},
    {"variants_of": "B2", "test": "ITC; parent: 250 nM", "units": {"Kd": "µM"}, "values": [
      {"variant": "chain 1 I6A", "Kd": 3.86},
      {"variant": "chain 1 L10A", "Kd": 3.87}
    ]},
    {"variants_of": "B3", "test": "ITC; parent: 2.48e+03 nM", "units": {"Kd": "µM"}, "values": [
      {"variant": "chain 1 L17A", "Kd": 41.5},
      {"variant": "chain 1 I19A", "Kd": 189}
    ]},
    {"variants_of": "B4", "test": "Co-immunoprecipitation; IP: HA; IB: anti-TAP; parent: 1", "values": [
      {"variant": "chain 1 L1204A, chain 1 V1206A, chain 1 I1208A, chain 1 L1210A", "ratio to parent": 0.38}
    ]}
  ]
}
